Experiments:
CD38 [1] = molecular target: T1, CD38 (UniProt P28907 1-300, limits assumed); experiment: FACS binding to RPMI8226 cells, VHH-His format
T1 construct: whole, on cells; also called CD38 on RPMI8226 cells; CD38 on H929 cells
T1 sequence (looked up): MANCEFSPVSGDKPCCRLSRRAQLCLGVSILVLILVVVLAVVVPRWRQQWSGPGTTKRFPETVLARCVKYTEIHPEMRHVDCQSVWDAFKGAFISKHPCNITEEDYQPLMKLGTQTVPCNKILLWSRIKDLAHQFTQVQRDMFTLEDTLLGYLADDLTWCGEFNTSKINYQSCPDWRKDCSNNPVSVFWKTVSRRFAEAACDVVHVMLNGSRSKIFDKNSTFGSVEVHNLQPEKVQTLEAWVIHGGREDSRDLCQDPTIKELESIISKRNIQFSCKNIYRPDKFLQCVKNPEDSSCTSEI

human BCMA [2] = molecular target: T2, human BCMA (human, UniProt Q02223 1-184); experiment: FACS binding to RPMI8226 cells, Fc format [upper panel RPMI8226]
T2 construct: whole, on cells; Human is stated only for CHO-HuBCMA; also called HuBCMA; B-cell maturation antigen
T2 sequence (looked up): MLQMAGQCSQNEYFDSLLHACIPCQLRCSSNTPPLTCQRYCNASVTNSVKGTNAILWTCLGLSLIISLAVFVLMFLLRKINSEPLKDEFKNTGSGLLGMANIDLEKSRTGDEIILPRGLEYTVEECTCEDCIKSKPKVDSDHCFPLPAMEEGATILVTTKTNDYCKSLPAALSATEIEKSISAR

CD38 [3] = molecular target: T1, CD38; experiment: FACS on H929 cells, VHH-His
CD38 [4] = molecular target: T1, CD38; experiment: FACS on RPMI8226 cells, VHH-His
human BCMA [5] = molecular target: T2, human BCMA; experiment: FACS on CHO-HuBCMA cells, Fc formatted
human BCMA [6] = molecular target: T2, human BCMA; experiment: FACS on RPMI8226 cells, Fc formatted
human GPRC5D [7] = molecular target: T3, human GPRC5D (human, UniProt Q9NZD1 1-345); experiment: FACS on H929 cells, VHH-His
T3 construct: whole, on cells; Human is stated only for CHO-HuGPRC5D; also called HuGPRC5D; GPRC5D on CHO-HuGPRC5D cells
T3 sequence (Q9NZD1 whole entry): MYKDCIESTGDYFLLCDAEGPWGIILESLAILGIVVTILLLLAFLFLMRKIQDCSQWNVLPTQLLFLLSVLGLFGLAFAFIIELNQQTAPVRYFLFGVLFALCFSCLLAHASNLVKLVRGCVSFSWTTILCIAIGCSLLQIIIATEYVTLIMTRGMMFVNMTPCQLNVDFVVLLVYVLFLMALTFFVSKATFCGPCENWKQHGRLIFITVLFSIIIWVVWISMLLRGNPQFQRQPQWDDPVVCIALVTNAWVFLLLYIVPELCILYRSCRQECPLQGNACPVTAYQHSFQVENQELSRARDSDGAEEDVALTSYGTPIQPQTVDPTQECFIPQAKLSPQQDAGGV

human GPRC5D [8] = molecular target: T3, human GPRC5D; experiment: FACS on CHO-HuGPRC5D cells, VHH-His
human GPRC5D [9] = molecular target: T3, human GPRC5D; experiment: FACS on CHO-HuGPRC5D cells
human GPRC5D [10] = molecular target: T3, human GPRC5D; experiment: FACS on H929 cells

B1: CD38-VHH4 (VHH)
VHH: QVQLVESGGGLVQPGGSLRLSCAASGFSLDYYHIGWFRQAPGKEREGISCISSSDGYTLYADSVKGRFTISRDNAKNTVYLQMNSLKPEDTAVYYCAASPRRLACAGSLYPPLSADFSSWGQGTQVTVSS
binding result (CD38 [1]): binds

B2: BCMA-VHH21 (Fc fusion)
chain: QVKLEESGGGLVQAGGSLSLSCKASVRYFSTYAMGWFRQAPGKEREFVAAISWSGGSTYYADSVKGRFTISRDNAKNTVYLEMNSLKPEDTAVYYCAAPYGSSQNLEYDYWGQGTQVTVSS
notes: not shown: Fc of the Fc formatted construct
binding result (human BCMA [2]): no binding (tested: about 500 nM (log 2.7))

B3: BCMA-VHH24 (Fc fusion)
chain: QVKLEESGGGLVQAGGSLRLSCQVSGRTFASFAMAWFRQAPGKEREFVAGISWSGGFTSYADSVKGRFTISRDNAKHTVYLQMNSLKTEDTAMYYCGEWGGFSLLGQGTQVTVSS
notes: as for B2
binding result (human BCMA [2]): no binding (tested: about 500 nM (log 2.7))

B4: CD38-VHH6 (VHH)
VHH: QVQLVESGGGLVQAGGSLRLSCAASGTFSSINLMGYYRQAPGKQREFVARDYTEGTTDYADSVKGRFTISRDNTKKTVFLQMNNLKPEDTAIYYCWLMVRAGDVYWGQGTQVTVSS
EC50 (CD38 [3]): 101 nM
EC50 (CD38 [4]): 28.4 nM

B5: CD38-VHH7 (VHH)
VHH: QVQLVESGGGLVHTGGSLRLSCAASGSISGLNTMGWYRQAPGKQRELVATIISGTMTRYADSVKGRFTISKDNAKNTVYLQMNSLKPEDTAVYYCTFKEITRDSRSYWGQGTQVTVSS
EC50 (CD38 [3]): 3.55 nM
EC50 (CD38 [4]): 1.91 nM

B6: CD38-VHH8 (VHH)
VHH: QVQLVESGGGLVQAGGSLRLSCAASGSSVSMNSMAWYRQAPGKQRELVALITPGDRINYADFVKGRFTISRDNAKNTVNLQMNNLKPEDTAVYYCNIGATRPPFGAWGQGTQVTVSS
EC50 (CD38 [3]): 2.06 nM
EC50 (CD38 [4]): 0.45 nM

B7: CD38-VHH9 (VHH)
VHH: QVQLVESGGGLVQAGGSLRLSCVASGFIYSISTMGWYRQAPGKQRELVATITSGGNTNYADSVKGRFTISRDNAQNTVYLQMNNLKPEDTAIYYCNTAWRETIVSRVWGQGTQVTVSS
EC50 (CD38 [3]): 2.62 nM
EC50 (CD38 [4]): 0.51 nM

B8: CD38-VHH12 (VHH)
VHH: QVQLVESGGGLVQAGGSLRLSCVASGIIFRIFSMGWYRQAPGKQRELVATITSGGNTNYAHSVKGRFTISRDDAKNTVNLQMNSLKPEDTAVYYCNVAIPSGIVDRSAWGQGTQVTVSS
EC50 (CD38 [3]): 25.7 nM
EC50 (CD38 [4]): 10.5 nM

B9: BCMA-VHH2 (Fc fusion)
chain: HVQLVESGGGLVQTGGSLRLSCAASGRTLNNYVVAWFRQAPGKEREFVATMWWSGGSPWYSDNVKGRFTISRDNAKNTLYLQMNSLRPEDTAVYYCAATWVGTSEYRHWGQGTQVTVSS
notes: as for B2
EC50 (human BCMA [5]): 0.8 nM

B10: BCMA-VHH4 (Fc fusion)
chain: QVKLEESGGGLVQTGGSLRLSCAASGRTLNNYVVAWFRQAPGKEREFVATMWWSGGSPWYSDNVKGRFTISRDNAKNTLYLQMNSLRPEDTAVYYCAATWVGTSEYQHWGQGTQVTVSS
notes: as for B2
EC50 (human BCMA [5]): 0.57 nM

B11: BCMA-VHH8 (Fc fusion)
chain: QVQLVQSGGGLVLPGGSLRLSCAASGFTLSSYWMHWLRQAPGKGLEWVSAIKPESGITYYAESMKGRFTISRDNAKNTLYLQMNSLKSEDSALYYCVREDYDSAYVGDYWGKGTQVTVSS
notes: as for B2
EC50 (human BCMA [5]): 170 nM

B12: BCMA-VHH15 (Fc fusion)
chain: QVQLVESGGGLVQPGGSLRLSCAASGFTFSTYSMYWVRQAPGKGLEWVSAIDARGVNTYYADSVRGRFTVSRDNAKNTLYLQMNNLKLEDTALYYCGGWEFATWGRGTQVTVSS
notes: as for B2
EC50 (human BCMA [5]): 1.76 nM

B13: BCMA-VHH18 (Fc fusion)
chain: PVQLVESGGGLVQAGGSLRLSCAASGRTFSSYAMGWFRQAPGKEREFVAGVSWTGDNTGYADSVKGRFTISRDNFKSTVYLEMNSLKPEDTAVYFCAAWNWGHHEYTYWGRGTQVTVSS
notes: as for B2
EC50 (human BCMA [5]): 1020 nM

B14: BCMA-VHH5 (Fc fusion)
chain: QVKLEESGGGLVQAGGSLRLSCAASGRTFSDYTVAWFRQAPGSEREFVAASVWTDGKPYYVDSVRGRFTISRDNAKNTVWLQMDSLQPDDTAVYYCQALTGGSWILDYWGQGTPVTVSS
notes: as for B2
EC50 (human BCMA [6]): 72.2 nM

B15: BCMA-VHH22 (Fc fusion)
chain: HVQLVDSGGGLVQAGGSLRLSCAASGFTFDDYAMSWVRQAPGKGLEWVSAISWNGGSTYYAESMKGRFTISRDNTKNTLYLQMNSLKPEDSAVYYCVPVSHSDSVCGSPYMDYWGKGTLVTVSS
notes: as for B2
EC50 (human BCMA [6]): 49.2 nM

B16: GPRC5D-VHH1 (VHH)
VHH: SVQLVESEGGLVQAGGSLRLSCVASGRTVSSYAMGWFRQAPGKEREFVAAISWSGRSTYYADSMKGRFTISRDNAKNTVYLQMNNLRPEDTAVYYCATSRAVIPGRDWNYYEYSGQGTQVTVSS
EC50 (human GPRC5D [7]): 13.2 nM
EC50 (human GPRC5D [8]): 2.52 nM

B17: GPRC5D-VHH1-H7 (VHH)
VHH: QVQLVESGGGLVQPGGSLRLSCAASGRTVSSYAMGWFRQAPGKEREFVSAISWSGRSTYYADSMKGRFTISRDNAKNTLYLQMNSLRAEDTAVYYCATSRAVIPGRDWNYYEYWGQGTLVTVSS
notes: Humanized variant of GPRC5D-VHH1
EC50 (human GPRC5D [9]): 4.44 nM

B18: GPRC5D-VHH2 (VHH)
VHH: QVQLVESGGGLVQAGGSLRLSCAASGRTASAYVMGWFRQAPGKERDFVAGISGGAYYADSVKGRFTIARDNAKNTVYLQMNSLKPEDTAVYYCAAERGMRRLTESYQYDYWGQGTQVTVSS
EC50 (human GPRC5D [7]): 0.23 nM
EC50 (human GPRC5D [8]): 0.68 nM

B19: GPRC5D-VHH2-H5 (VHH)
VHH: QVQLVESGGGLVQPGGSLRLSCAASGRTASAYVMGWFRQAPGKEREFVAGISGGAYYADSVKGRFTISRDNSKNTVYLQMNSLRAEDTAVYYCAAERGMRRLTESYQYDYWGQGTLVTVSS
notes: Humanized variant of GPRC5D-VHH2
EC50 (human GPRC5D [10]): 0.06 nM
EC50 (human GPRC5D [9]): 0.3 nM

B20: GPRC5D-VHH3 (VHH)
VHH: QVKLVESGGGLVQPGGSLRLSCVGSGIIFSASNLAWYRQALGKQRELVAGVTGGGSINYADSVKGRFTISRDNAKNTIYLQMNSLKPEDTAVYYCNARRSYSHWGQGTRVTVSS
EC50 (human GPRC5D [7]): 1.65 nM
EC50 (human GPRC5D [8]): 4.23 nM

B21: GPRC5D-VHH3-H9 (VHH)
VHH: QVQLVESGGGLVQPGGSLRLSCAASGIIFSASNLAWYRQAPGKQRELVAGVTGGGSINYADSVKGRFTISRDNAKNTIYLQMNSLRAEDTAVYYCNARRSYSHWGQGTLVTVSS
notes: Humanized variant of GPRC5D-VHH3
EC50 (human GPRC5D [10]): 1.17 nM
EC50 (human GPRC5D [9]): 19.8 nM
